From paper PMC9482650, “Quantitative fragmentomics allow affinity mapping of interactomes” (Nature Communications, 2022)

T1: HTRA4, P83105
T1 sequence (P83105 378-476, limits assumed, looked up): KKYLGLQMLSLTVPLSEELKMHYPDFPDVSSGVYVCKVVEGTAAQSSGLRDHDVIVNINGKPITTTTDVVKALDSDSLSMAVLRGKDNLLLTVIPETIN

T2: PTPN13_1, Q12923
T2 sequence (Q12923 1088-1188, limits assumed, looked up): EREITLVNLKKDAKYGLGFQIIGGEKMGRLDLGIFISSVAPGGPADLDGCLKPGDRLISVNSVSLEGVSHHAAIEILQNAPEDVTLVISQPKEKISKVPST

T3: APBA3_1, O96018
T3 sequence (O96018 389-490, limits assumed, looked up): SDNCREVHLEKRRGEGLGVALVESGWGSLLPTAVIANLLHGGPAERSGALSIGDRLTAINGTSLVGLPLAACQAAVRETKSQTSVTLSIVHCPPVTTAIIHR

T4: TIAM2, Q8IVF5
T4 sequence (Q8IVF5 885-986, limits assumed, looked up): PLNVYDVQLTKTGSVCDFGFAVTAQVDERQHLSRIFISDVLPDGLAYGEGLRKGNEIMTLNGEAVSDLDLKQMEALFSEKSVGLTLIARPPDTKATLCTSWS

T5: RHPN1, Q8TCX5
T5 sequence (Q8TCX5 508-602, limits assumed, looked up): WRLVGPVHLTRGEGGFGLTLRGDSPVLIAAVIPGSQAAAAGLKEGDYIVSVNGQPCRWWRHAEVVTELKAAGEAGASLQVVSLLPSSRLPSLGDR

T6: SNTG2, Q9NY99
T6 sequence (Q9NY99 68-166, limits assumed, looked up): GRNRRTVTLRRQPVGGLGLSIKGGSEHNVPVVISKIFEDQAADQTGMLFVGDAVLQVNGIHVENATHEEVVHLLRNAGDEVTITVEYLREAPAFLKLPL

T7: RAPGEF6, Q8TEU7
T7 sequence (Q8TEU7 525-625, limits assumed, looked up): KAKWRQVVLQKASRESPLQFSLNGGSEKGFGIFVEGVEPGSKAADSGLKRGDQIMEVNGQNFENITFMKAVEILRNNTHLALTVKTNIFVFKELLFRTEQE

T8: FRMPD1, Q5SYB0
T8 sequence (Q5SYB0 52-145, limits assumed, looked up): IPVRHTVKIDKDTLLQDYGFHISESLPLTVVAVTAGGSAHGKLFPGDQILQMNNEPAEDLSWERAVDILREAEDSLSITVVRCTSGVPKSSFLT

T9: PDZD7_3, Q9H5P4
T9 sequence (Q9H5P4 857-944, limits assumed, looked up): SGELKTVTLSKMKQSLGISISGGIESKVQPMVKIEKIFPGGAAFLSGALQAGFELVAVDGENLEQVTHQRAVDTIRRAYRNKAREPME

T10: DVL3, Q92997
T10 sequence (Q92997 244-331, limits assumed, looked up): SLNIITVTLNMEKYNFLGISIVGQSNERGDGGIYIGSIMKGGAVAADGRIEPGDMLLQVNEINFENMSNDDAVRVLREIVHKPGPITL

T11: SIPA1L2, Q9P2F8
T11 sequence (Q9P2F8 945-1036, limits assumed, looked up): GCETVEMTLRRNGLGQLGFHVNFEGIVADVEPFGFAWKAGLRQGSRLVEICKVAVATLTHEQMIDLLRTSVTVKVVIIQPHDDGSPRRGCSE

B1: PRR16, Q569H4 (peptide)
chain: ILRKSTTTTV

Target: T1, HTRA4, P83105
Experiment: holdup assay
Set-up: key: below the threshold = too weak to quantify, mostly under pKd 3.1 to 4
Conditions: plain residues with an end cap or a label only (N-terminal biotin on a linker: ado-ado)

Row | pKd | Binder
1 | 4.12 | B1

Target: T2, PTPN13_1, Q12923
Experiment: holdup assay
Set-up: key: below the threshold = too weak to quantify, mostly under pKd 3.1 to 4
Conditions: plain residues with an end cap or a label only (N-terminal biotin on a linker: ado-ado)

Row | pKd | Binder
2 | below the threshold | B1

Target: LNX1_2, Q8TBB1
Experiment: holdup assay
Set-up: key: below the threshold = too weak to quantify, mostly under pKd 3.1 to 4
Conditions: plain residues with an end cap or a label only (N-terminal biotin on a linker: ado-ado)

Sequence of LNX1_2, Q8TBB1 (Q8TBB1 371-470): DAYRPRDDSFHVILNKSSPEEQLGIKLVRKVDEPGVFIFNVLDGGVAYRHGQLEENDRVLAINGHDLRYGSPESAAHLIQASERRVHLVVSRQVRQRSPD

Row | pKd | Binder
3 | 3.8 | B1

Target: FRMPD2_3, Q68DX3
Experiment: holdup assay
Set-up: key: below the threshold = too weak to quantify, mostly under pKd 3.1 to 4
Conditions: plain residues with an end cap or a label only (N-terminal biotin on a linker: ado-ado)

Sequence of FRMPD2_3, Q68DX3 (Q68DX3 1073-1166): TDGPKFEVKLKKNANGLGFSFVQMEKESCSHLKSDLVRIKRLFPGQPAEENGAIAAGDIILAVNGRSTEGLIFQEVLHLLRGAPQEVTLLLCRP

Row | pKd | Binder
4 | below the threshold | B1

Target: FRMPD4, Q14CM0
Experiment: holdup assay
Set-up: key: below the threshold = too weak to quantify, mostly under pKd 3.1 to 4
Conditions: plain residues with an end cap or a label only (N-terminal biotin on a linker: ado-ado)

Sequence of FRMPD4, Q14CM0 (Q14CM0 67-160): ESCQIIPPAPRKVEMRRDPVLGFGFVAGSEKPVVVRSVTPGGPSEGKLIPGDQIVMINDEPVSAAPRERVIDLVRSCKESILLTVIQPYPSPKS

Row | pKd | Binder
5 | below the threshold | B1

Target: NHERF4_4, Q86UT5
Experiment: holdup assay
Set-up: key: below the threshold = too weak to quantify, mostly under pKd 3.1 to 4
Conditions: plain residues with an end cap or a label only (N-terminal biotin on a linker: ado-ado)

Sequence of NHERF4_4, Q86UT5 (Q86UT5 464-550): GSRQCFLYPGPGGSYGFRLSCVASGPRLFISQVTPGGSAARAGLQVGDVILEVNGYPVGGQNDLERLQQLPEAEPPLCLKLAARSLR

Row | pKd | Binder
6 | below the threshold | B1

Target: T3, APBA3_1, O96018
Experiment: holdup assay
Set-up: key: below the threshold = too weak to quantify, mostly under pKd 3.1 to 4
Conditions: plain residues with an end cap or a label only (N-terminal biotin on a linker: ado-ado)

Row | pKd | Binder
7 | below the threshold | B1

Target: Inadl_6, Q8NI35
Experiment: holdup assay
Set-up: key: below the threshold = too weak to quantify, mostly under pKd 3.1 to 4
Conditions: plain residues with an end cap or a label only (N-terminal biotin on a linker: ado-ado)

Sequence of Inadl_6, Q8NI35 (Q8NI35 1058-1167): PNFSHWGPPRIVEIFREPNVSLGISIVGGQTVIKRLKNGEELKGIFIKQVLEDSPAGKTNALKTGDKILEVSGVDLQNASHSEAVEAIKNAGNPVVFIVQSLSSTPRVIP

Row | pKd | Binder
8 | below the threshold | B1

Target: T4, TIAM2, Q8IVF5
Experiment: holdup assay
Set-up: key: below the threshold = too weak to quantify, mostly under pKd 3.1 to 4
Conditions: plain residues with an end cap or a label only (N-terminal biotin on a linker: ado-ado)

Row | pKd | Binder
9 | below the threshold | B1

Target: T5, RHPN1, Q8TCX5
Experiment: holdup assay
Set-up: key: below the threshold = too weak to quantify, mostly under pKd 3.1 to 4
Conditions: plain residues with an end cap or a label only (N-terminal biotin on a linker: ado-ado)

Row | pKd | Binder
10 | 4.01 | B1

Target: GRIP2_4, Q9C0E4
Experiment: holdup assay
Set-up: key: below the threshold = too weak to quantify, mostly under pKd 3.1 to 4
Conditions: plain residues with an end cap or a label only (N-terminal biotin on a linker: ado-ado)

Sequence of GRIP2_4, Q9C0E4 (Q9C0E4 446-548): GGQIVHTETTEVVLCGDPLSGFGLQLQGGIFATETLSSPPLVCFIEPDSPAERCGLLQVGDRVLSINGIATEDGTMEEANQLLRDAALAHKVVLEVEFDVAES

Row | pKd | Binder
11 | below the threshold | B1

Target: MAGI2_6, Q86UL8
Experiment: holdup assay
Set-up: key: below the threshold = too weak to quantify, mostly under pKd 3.1 to 4
Conditions: plain residues with an end cap or a label only (N-terminal biotin on a linker: ado-ado)

Sequence of MAGI2_6, Q86UL8 (Q86UL8 1141-1229): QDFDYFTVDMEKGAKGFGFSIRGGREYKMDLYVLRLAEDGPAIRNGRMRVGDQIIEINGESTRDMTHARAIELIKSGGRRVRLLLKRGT

Row | pKd | Binder
12 | below the threshold | B1

Target: DLG2_3, Q15700
Experiment: holdup assay
Set-up: key: below the threshold = too weak to quantify, mostly under pKd 3.1 to 4
Conditions: plain residues with an end cap or a label only (N-terminal biotin on a linker: ado-ado)

Row | pKd | Binder
13 | 4.38 | B1

Target: PDZRN4_1, Q6ZMN7
Experiment: holdup assay
Set-up: key: below the threshold = too weak to quantify, mostly under pKd 3.1 to 4
Conditions: plain residues with an end cap or a label only (N-terminal biotin on a linker: ado-ado)

Sequence of PDZRN4_1, Q6ZMN7 (Q6ZMN7 213-318): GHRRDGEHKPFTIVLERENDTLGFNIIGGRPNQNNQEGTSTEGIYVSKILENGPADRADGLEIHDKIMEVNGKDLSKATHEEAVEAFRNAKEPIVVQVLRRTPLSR

Row | pKd | Binder
14 | below the threshold | B1

Target: FRMPD2_1, Q68DX3
Experiment: holdup assay
Set-up: key: below the threshold = too weak to quantify, mostly under pKd 3.1 to 4
Conditions: plain residues with an end cap or a label only (N-terminal biotin on a linker: ado-ado)

Sequence of FRMPD2_1, Q68DX3 (Q68DX3 770-861): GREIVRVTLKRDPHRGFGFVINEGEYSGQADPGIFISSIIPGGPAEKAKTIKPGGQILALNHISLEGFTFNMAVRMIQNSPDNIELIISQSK

Row | pKd | Binder
15 | below the threshold | B1

Target: GRASP, Q7Z6J2
Experiment: holdup assay
Set-up: key: below the threshold = too weak to quantify, mostly under pKd 3.1 to 4
Conditions: plain residues with an end cap or a label only (N-terminal biotin on a linker: ado-ado)

Sequence of GRASP, Q7Z6J2 (Q7Z6J2 96-193): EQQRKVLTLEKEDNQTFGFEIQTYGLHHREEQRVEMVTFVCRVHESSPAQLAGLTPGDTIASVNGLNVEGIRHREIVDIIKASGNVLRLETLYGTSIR

Row | pKd | Binder
16 | 4.41 | B1

Target: T6, SNTG2, Q9NY99
Experiment: holdup assay
Set-up: key: below the threshold = too weak to quantify, mostly under pKd 3.1 to 4
Conditions: plain residues with an end cap or a label only (N-terminal biotin on a linker: ado-ado)

Row | pKd | Binder
17 | below the threshold | B1

Target: LNX1_1, Q8TBB1
Experiment: holdup assay
Set-up: key: below the threshold = too weak to quantify, mostly under pKd 3.1 to 4
Conditions: plain residues with an end cap or a label only (N-terminal biotin on a linker: ado-ado)

Sequence of LNX1_1, Q8TBB1 (Q8TBB1 261-371): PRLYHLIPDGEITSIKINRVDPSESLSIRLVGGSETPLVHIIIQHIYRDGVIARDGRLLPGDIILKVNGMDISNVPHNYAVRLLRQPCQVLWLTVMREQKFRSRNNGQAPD

Row | pKd | Binder
18 | below the threshold | B1

Target: T7, RAPGEF6, Q8TEU7
Experiment: holdup assay
Set-up: key: below the threshold = too weak to quantify, mostly under pKd 3.1 to 4
Conditions: plain residues with an end cap or a label only (N-terminal biotin on a linker: ado-ado)

Row | pKd | Binder
19 | below the threshold | B1

Target: T8, FRMPD1, Q5SYB0
Experiment: holdup assay
Set-up: key: below the threshold = too weak to quantify, mostly under pKd 3.1 to 4
Conditions: plain residues with an end cap or a label only (N-terminal biotin on a linker: ado-ado)

Row | pKd | Binder
20 | below the threshold | B1

Target: ARHGEF12, Q9NZN5-2
Experiment: holdup assay
Set-up: key: below the threshold = too weak to quantify, mostly under pKd 3.1 to 4
Conditions: plain residues with an end cap or a label only (N-terminal biotin on a linker: ado-ado)

Sequence of ARHGEF12, Q9NZN5-2 (Q9NZN5 other isoform, or with tags, fused parts or gaps): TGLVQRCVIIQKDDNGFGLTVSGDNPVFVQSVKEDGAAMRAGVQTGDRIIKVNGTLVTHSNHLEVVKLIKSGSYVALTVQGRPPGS

Row | pKd | Binder
21 | 4.26 | B1

Target: FRMPD2_2, Q68DX3
Experiment: holdup assay
Set-up: key: below the threshold = too weak to quantify, mostly under pKd 3.1 to 4
Conditions: plain residues with an end cap or a label only (N-terminal biotin on a linker: ado-ado)

Sequence of FRMPD2_2, Q68DX3 (Q68DX3 944-1038): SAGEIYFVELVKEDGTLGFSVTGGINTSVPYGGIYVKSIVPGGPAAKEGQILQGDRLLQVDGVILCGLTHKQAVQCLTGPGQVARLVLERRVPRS

Row | pKd | Binder
22 | below the threshold | B1

Target: Inadl_8, Q8NI35
Experiment: holdup assay
Set-up: key: below the threshold = too weak to quantify, mostly under pKd 3.1 to 4
Conditions: plain residues with an end cap or a label only (N-terminal biotin on a linker: ado-ado)

Sequence of Inadl_8, Q8NI35 (Q8NI35 1425-1530): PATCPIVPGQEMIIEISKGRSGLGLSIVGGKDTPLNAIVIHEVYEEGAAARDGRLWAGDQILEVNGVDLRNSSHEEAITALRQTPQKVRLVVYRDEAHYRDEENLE

Row | pKd | Binder
23 | 3.62 | B1

Target: MAGI2_3, Q86UL8
Experiment: holdup assay
Set-up: key: below the threshold = too weak to quantify, mostly under pKd 3.1 to 4
Conditions: plain residues with an end cap or a label only (N-terminal biotin on a linker: ado-ado)

Sequence of MAGI2_3, Q86UL8 (Q86UL8 600-682): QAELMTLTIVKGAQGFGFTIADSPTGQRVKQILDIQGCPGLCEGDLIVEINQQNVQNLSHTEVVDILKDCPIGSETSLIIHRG

Row | pKd | Binder
24 | 3.74 | B1

Target: T9, PDZD7_3, Q9H5P4
Experiment: holdup assay
Set-up: key: below the threshold = too weak to quantify, mostly under pKd 3.1 to 4
Conditions: plain residues with an end cap or a label only (N-terminal biotin on a linker: ado-ado)

Row | pKd | Binder
25 | 4.67 | B1

Target: T10, DVL3, Q92997
Experiment: holdup assay
Set-up: key: below the threshold = too weak to quantify, mostly under pKd 3.1 to 4
Conditions: plain residues with an end cap or a label only (N-terminal biotin on a linker: ado-ado)

Row | pKd | Binder
26 | below the threshold | B1

Target: T11, SIPA1L2, Q9P2F8
Experiment: holdup assay
Set-up: key: below the threshold = too weak to quantify, mostly under pKd 3.1 to 4
Conditions: plain residues with an end cap or a label only (N-terminal biotin on a linker: ado-ado)

Row | pKd | Binder
27 | below the threshold | B1
